Laboratory results from PMC12697864, “cGAS Inhibits ALDH2 to Suppress Lipid Droplet Function and Regulate MASLD Progression” (Advanced Science, 2025).

Target: the molecule itself
Assay: mass photometry; TWOMP (Refeyn), room temperature, 1X PBS with 1 mM β-mercaptoethanol, proteins at 10 nM-400 nM; hALDH2 with NAD+, with or without mcGAS; tetramer formation

B1: His-ALDH2, purified full-length human ALDH2 (enzyme, UniProt P05091 18-517, looked up)
chain: SAAATQAVPAPNQQPEVFCNQIFINNEWHDAVSRKTFPTVNPSTGEVICQVAEGDKEDVDKAVKAARAAFQLGSPWRRMDASHRGRLLNRLADLIERDRTYLAALETLDNGKPYVISYLVDLDMVLKCLRYYAGWADKYHGKTIPIDGDFFSYTRHEPVGVCGQIIPWNFPLLMQAWKLGPALATGNVVVMKVAEQTPLTALYVANLIKEAGFPPGVVNIVPGFGPTAGAAIASHEDVDKVAFTGSTEIGRVIQVAAGSSNLKRVTLELGGKSPNIIMSDADMDWAVEQAHFALFFNQGQCCCAGSRTFVQEDIYDEFVERSVARAKSRVVGNPFDSKTEQGPQVDETQFKKILGYINTGKQEGAKLLCGGGIAADRGYFIQPTVFGDVQDGMTIAKEEIFGPVMQILKFKTIEEVVGRANNSTYGLAAAVFTKDLDKANYLSQALQAGTVWVNCYDVFGAQSPFGGYKMSGSGRELGEYGLQAYTEVKTVTVKVPQKNS
notes: aldehyde dehydrogenase 2 (ALDH2), human, full-length gene, codon-optimised, in pET28a; Two preparations: likely apo hALDH2, and tetrameric hALDH2 isolated by SEC after incubation with 1 mM NAD+; Tetramer forms with NAD+ (mass photometry); also called hALDH2; bacterially purified ALDH2 proteins; source: E. coli Rosetta (DE3), purified (Ni Sepharose, Q column, SEC); not shown: His6, N-terminal, kept
- stoichiometry N: 4
